Data set [1] has as its target T1, Cbp1;Cren7 (Saccharolobus (Sulfolobus) solfataricus …, UniProt Q97ZW9;Q97ZE3 1-150;1-60, |).
T1 sequence 1: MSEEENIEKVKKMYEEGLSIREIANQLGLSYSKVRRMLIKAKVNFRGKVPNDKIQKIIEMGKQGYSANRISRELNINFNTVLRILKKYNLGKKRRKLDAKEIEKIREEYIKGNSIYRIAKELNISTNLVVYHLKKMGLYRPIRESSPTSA
T1 sequence 2: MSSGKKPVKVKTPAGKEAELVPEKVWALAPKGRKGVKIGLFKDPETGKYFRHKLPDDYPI
In words: EMSA; 12.5 nM Cbp1, 3.125-25 nM Cren7; EMSA: 800 pM DNA, 10 mM MOPS pH 6.5, 100 mM KCl, 10 mM MgCl2, 2 µg BSA, 10% glycerol, 5 mM DTT, 75 °C 5 min; long templates: 10 mM MOPS pH 6.5, 10 mM MgCl2, 105 mM KCl, 10% glycerol, 10 mM DTT, 5 µg/ml heparin, 2 mM spermidine, 65 °C. Particulars: protein: recombinant;recombinant; tags: ;; copies: 1;2; label: 5'-32P; blunt. On the technique in general: In EMSA bound probe runs differently from free probe, usually more slowly.

Data set [2] concerns the target T1, Cbp1;Cren7. In words: EMSA; 12.5 nM Cbp1, 3.125-25 nM Cren7; weaker Cren7 affinity than CRISPR A; EMSA: 800 pM DNA, 10 mM MOPS pH 6.5, 100 mM KCl, 10 mM MgCl2, 2 µg BSA, 10% glycerol, 5 mM DTT, 75 °C 5 min; long templates: 10 mM MOPS pH 6.5, 10 mM MgCl2, 105 mM KCl, 10% glycerol, 10 mM DTT, 5 µg/ml heparin, 2 mM spermidine, 65 °C. Particulars: protein: recombinant;recombinant; tags: ;; copies: 1;2; label: 5'-32P; blunt.

Data set [3] has as its target T2, Cbp1 (Saccharolobus (Sulfolobus) solfataricus …, UniProt Q97ZW9 1-150).
T2 sequence: T1 sequence 1
Put plainly: EMSA; 12.5 nM Cbp1; stronger than CRISPR A; EMSA: 800 pM DNA, 10 mM MOPS pH 6.5, 100 mM KCl, 10 mM MgCl2, 2 µg BSA, 10% glycerol, 5 mM DTT, 75 °C 5 min; long templates: 10 mM MOPS pH 6.5, 10 mM MgCl2, 105 mM KCl, 10% glycerol, 10 mM DTT, 5 µg/ml heparin, 2 mM spermidine, 65 °C. Particulars: protein: recombinant; label: 5'-32P; blunt.

For data set [4], the target named is T1, Cbp1;Cren7. Put plainly: EMSA; 12.5 nM Cbp1, 12.5-25 nM Cren7; two Cren7 recruited; EMSA: 800 pM DNA, 10 mM MOPS pH 6.5, 100 mM KCl, 10 mM MgCl2, 2 µg BSA, 10% glycerol, 5 mM DTT, 75 °C 5 min; long templates: 10 mM MOPS pH 6.5, 10 mM MgCl2, 105 mM KCl, 10% glycerol, 10 mM DTT, 5 µg/ml heparin, 2 mM spermidine, 65 °C. Particulars: protein: recombinant;recombinant; tags: ;; copies: 1;2; label: 5'-32P; blunt.

The target of data set [5] is T1, Cbp1;Cren7. Put plainly: EMSA; 12.5 nM Cbp1, 3.125-25 nM Cren7; second Cren7 at higher concentration; EMSA: 800 pM DNA, 10 mM MOPS pH 6.5, 100 mM KCl, 10 mM MgCl2, 2 µg BSA, 10% glycerol, 5 mM DTT, 75 °C 5 min; long templates: 10 mM MOPS pH 6.5, 10 mM MgCl2, 105 mM KCl, 10% glycerol, 10 mM DTT, 5 µg/ml heparin, 2 mM spermidine, 65 °C. Particulars: protein: recombinant;recombinant; tags: ;; copies: 1;2; label: 5'-32P; blunt.

Data set [6] has as its target T2, Cbp1. In words: EMSA; WT reference; EMSA: 800 pM DNA, 10 mM MOPS pH 6.5, 100 mM KCl, 10 mM MgCl2, 2 µg BSA, 10% glycerol, 5 mM DTT, 75 °C 5 min; long templates: 10 mM MOPS pH 6.5, 10 mM MgCl2, 105 mM KCl, 10% glycerol, 10 mM DTT, 5 µg/ml heparin, 2 mM spermidine, 65 °C. Particulars: protein: recombinant; label: 5'-32P; blunt.
Data set [7] has as its target T2, Cbp1. Put plainly: EMSA; not reduced vs WT repeat; EMSA: 800 pM DNA, 10 mM MOPS pH 6.5, 100 mM KCl, 10 mM MgCl2, 2 µg BSA, 10% glycerol, 5 mM DTT, 75 °C 5 min; long templates: 10 mM MOPS pH 6.5, 10 mM MgCl2, 105 mM KCl, 10% glycerol, 10 mM DTT, 5 µg/ml heparin, 2 mM spermidine, 65 °C. Particulars: protein: recombinant; label: 5'-32P; blunt.
Data set [8] concerns the target T3, Cbp1 ΔHTH3 (S. solfataricus P2, UniProt Q97ZW9 1-87+136-150, internal_change).
T3 sequence: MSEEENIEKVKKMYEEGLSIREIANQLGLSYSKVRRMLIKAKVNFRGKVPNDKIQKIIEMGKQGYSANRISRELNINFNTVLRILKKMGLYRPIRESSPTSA
In words: EMSA; 80 nM; no apparent effect of mutation; EMSA: 800 pM DNA, 10 mM MOPS pH 6.5, 100 mM KCl, 10 mM MgCl2, 2 µg BSA, 10% glycerol, 5 mM DTT, 75 °C 5 min; long templates: 10 mM MOPS pH 6.5, 10 mM MgCl2, 105 mM KCl, 10% glycerol, 10 mM DTT, 5 µg/ml heparin, 2 mM spermidine, 65 °C. Particulars: protein: recombinant; label: 5'-32P; blunt.

The target in data set [9] is T4, Cbp1 ΔHTH1 (S. solfataricus P2, UniProt Q97ZW9 1-1+51-150, internal_change).
T4 sequence: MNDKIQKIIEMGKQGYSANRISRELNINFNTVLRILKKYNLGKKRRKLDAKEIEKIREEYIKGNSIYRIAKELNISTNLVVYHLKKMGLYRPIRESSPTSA
Put plainly: EMSA; 160 nM; unaffected by mutation vs ΔHTH1 on WT repeat; EMSA: 800 pM DNA, 10 mM MOPS pH 6.5, 100 mM KCl, 10 mM MgCl2, 2 µg BSA, 10% glycerol, 5 mM DTT, 75 °C 5 min; long templates: 10 mM MOPS pH 6.5, 10 mM MgCl2, 105 mM KCl, 10% glycerol, 10 mM DTT, 5 µg/ml heparin, 2 mM spermidine, 65 °C. Particulars: protein: recombinant; label: 5'-32P; blunt.

Substitutions are numbered along the chain they refer to. Names and notes keep the numbering of the source.

B1: ISC1229 non-canonical Cbp1 binding site (dsDNA)
DNA 1: AACTTCAAGCATAGTGTCAACTAAGATTGCCACGTGAATTGAAAGGATTCACGTGGCGATTTTGG
DNA 2: CCAAAATCGCCACGTGAATCCTTTCAATTCACGTGGCAATCTTAGTTGACACTATGCTTGAAGTT
B1: the binding result in [1] is “binds”.

B2: CRISPR D repeat, 20 bp flanks (dsDNA)
DNA 1: AACTAACAAATATACGCCTTGATAATCTCTTATAGAATTGAAAGTCAATTTGTGAAACTTGTCC
DNA 2: GGACAAGTTTCACAAATTGACTTTCAATTCTATAAGAGATTATCAAGGCGTATATTTGTTAGTT
As to B2, in data set [2], the binding result is listed as “binds”.

B3: CRISPR F repeat, 20 bp flanks (dsDNA)
DNA 1: AAAATTATTGACAAAAATAGGCTAATCTACTATAGAATTGAAAGCTACACCGATTCCGATACCC
DNA 2: GGGTATCGGAATCGGTGTAGCTTTCAATTCTATAGTAGATTAGCCTATTTTTGTCAATAATTTT
On to B3, for which the binding result in data set [3] and in [2] was “binds” in each case.

B4: CRISPR A repeat 1, 20 bp downstream (dsDNA)
DNA 1: GGAAGTATAAAAACACAACAGATTAATCCCAAAAGGAATTGAAAGGAACTAGCTTATAGTTTAGA
DNA 2: TCTAAACTATAAGCTAGTTCCTTTCAATTCCTTTTGGGATTAATCTGTTGTGTTTTTATACTTCC
For the molecule B4, the binding result in data set [4] is listed as “binds”.

B5: CRISPR A repeat 1, 2 bp downstream (dsDNA)
DNA 1: GGAAGTATAAAAACACAACAGATTAATCCCAAAAGGAATTGAAAGGA
DNA 2: TCCTTTCAATTCCTTTTGGGATTAATCTGTTGTGTTTTTATACTTCC
Regarding B5, in data set [4], the binding result is “binds”.

B6: CRISPR A repeat, 20 bp flanks (Fig. 1e) (dsDNA)
DNA 1: CATCTTCTCTCATCACCTTCGATTAATCCCAAAAGGAATTGAAAGAATGTATAAAGGTAACCAGG
DNA 2: CCTGGTTACCTTTATACATTCTTTCAATTCCTTTTGGGATTAATCGAAGGTGATGAGAGAAGATG
Consider B6, for which the binding result in data set [5] is listed as “binds”.

B7: CRISPR A repeat 1, 5 bp flanks (WT) (dsDNA)
DNA 1: CAACAGATTAATCCCAAAAGGAATTGAAAGGAACT
DNA 2: AGTTCCTTTCAATTCCTTTTGGGATTAATCTGTTG
As to B7, in [6], the binding result was “binds”.

B8: CRISPR A repeat 1 A13C/A14C (A13C/T14G in text) (dsDNA)
DNA 1: B7 DNA 1 with A18C, A19C
DNA 2: B7 DNA 2 with T17G, T18G
Consider B8, for which the binding result in [7] was “binds”.

B9: CRISPR A repeat 1 A22C/A23C (dsDNA)
DNA 1: B7 DNA 1 with A27C, A28C
DNA 2: B7 DNA 2 with T8G, T9G
On to B9, for which the binding result in data set [8] is reported as “binds”.

B10: CRISPR A repeat 1 A6C/T7G (dsDNA)
DNA 1: B7 DNA 1 with A11C, T12G
DNA 2: B7 DNA 2 with A24C, T25G
Regarding B10, the binding result in [9] is “binds”.

B11: CRISPR A repeat 1 T19G/T20G (dsDNA)
DNA 1: B7 DNA 1 with T24G, T25G
DNA 2: B7 DNA 2 with A11C, A12C
With B11, the binding result in data set [8] was “binds”.

Source of the values: publication PMC10883916, “Cbp1 and Cren7 form chromatin-like structures that ensure efficient transcription of long CRISPR arrays”.
